Assays:
[1] = tested on: H520; experiment: In vitro cancer cell cytotoxicity (CellTiter-Glo cell viability); assay type: cell-based, human
Excerpt: EDCs were constructed using linker-ready agents PEG24-CEN09-106, PEG24-CEN09-107, PEG24-CEN10-110 and PEG24-CEN-319. As described in Example 1, linker-ready agent PEG24-CEN-319 contain digitoxigenin while the others contain scillarenin. Linker-ready agents PEG24-CEN09-106, PEG24-CEN09-107, PEG24-CEN10-110 all use different linkers. Specifically, PEG24-CEN09-106 and PEG24-CEN09-107 have different sugars in the linker, while PEG24-CEN10-110 contains a longer linker that includes a primary amine.
All of the cell lines below, except H520, express the Na,K-ATPase with the dysadherin subunit and so present the target of the antibody and drug in close proximity.

[2] = Pharmacokinetics and serum stability, antibody and drug specific ELISA; assay type: in vivo, Balb/c mice; details: for serum half-life of the antibody portion / serum half-life of the steroid drug portion: Balb/c mice; for serum half-life of the antibody portion: EDC drug loading of 3; for serum half-life of the steroid drug portion: drug loading of 3; for serum stability half-life of the EDC: from ratio of slopes of serum decay of drug and antibody portions
Procedure: The steroid drug pharmacokinetics of M53-PEG24-CEN09-106 were measured using the drug specific ELISA described below. The comparison between the two ELISA results (antibody concentrations minus drug concentrations) was used to determine the rate of drug breakdown and thus examine M53-PEG24-CEN09-106 stability.
Serum was isolated from blood samples acquired by retro-orbital blood collection at 1, 2, 4, 8, 16, 26, and 40 days post-injection. […] Plasma concentrations of the steroid drug in M53-PEG24-CEN09-106 were measured as follows. Antigen coated ELISA plates were washed (×3) with PBS pH 7, blocked 30 min with PBS pH 7 containing 1% NFDM (PBS+NFDM), and then washed (×3) with PBS, pH 7. Diluted serum samples and standard curves of M53-PEG24-CEN09-106 were prepared in the above blocking buffer and applied to coated wells, incubated 30 min at RT, and the wells were washed (×3) with PBS, pH 7. Biotinylated 25C2E3 (a monoclonal IgG1 antibody specific for the steroid portion of PEG24-CEN09-106 and conjugated to biotin [Thermo Scientific, PN 21911]) was diluted to 100 ng/mL in PBS+NFDM and added (100 uL) to each well, incubated 30 min at RT, and the wells washed (×3) with PBS, pH 7. PNPP at 1 mg/mL in 1M DEA with 50 mM MgCl2, pH 9.8 was added (100 uL per well), and the absorbance at 405 nm was determined using a Wallac Victor^2 Model 1420-041 assay plate reader (Perkin Elmer, Gaithersburg, Md.) every 5 minutes for a total of 6 reads.
For both ELISAs, absorbance values from known standards were plotted as absorbance over time, generating a linear slope for each concentration. The slopes generated were then plotted against the respective concentrations of the standards, creating a second linear plot. The absorbance values for the unknown serum samples were plotted over time, establishing a slope for unknown sample. The linear estimate from the slope versus concentration plot was then used to extrapolate concentrations for each unknown sample based on their slope.
To determine serum stability of the intact EDC (drug release from the antibody over time) in these samples, the ratio of the slopes of serum decay of the drug portion to the serum decay of the antibody portion were calculated.

[3] = Single-dose tolerated dose (MTD), tail vein; assay type: in vivo, BALB/c mice
Procedure: EDC M53-PEG24-CEN09-106 preparations with drug loading of 2, 5 or 9 drugs per antibody were administered to BALB/c mice (Harlan Laboratories, n=1) in a single dose of 25, 50, 100 and 200 mg/kg via the tail vein to determine single-dose MTDs. Mice were monitored daily for 24 days, and both weight and clinical observations were recorded (weight measured at least twice a week and evaluation for overt signs of toxicity conducted at least twice a day).

[4] = Single intraperitoneal dose tolerability; assay type: in vivo, male BALB/c mice; details: drug loading of 2, 500 mg/kg intraperitoneal
Procedure: In a separate experiment, male BALB/c mice (BALB/cAnNHsd, Harlan Laboratories) were administered a single and immediate dose of 500 mg/kg of M53-PEG24-CEN09-106 with a drug loading of 2 drugs per antibody by intraperitoneal injection. Animal weights were recorded over a 22 day period and visual observations were made over a period of 146 days and compared to mice receiving a vehicle control. […] Mice regained normal control body weight by day 15.

[5] = Pharmacokinetics with varying drug loading (antigen binding ELISA); assay type: in vivo; details: SCID beige mice
Procedure: Serum was isolated from blood samples taken by retro-orbital blood collection at 1 hour, and 1, 2, 3, 6, and 15 days post-injection. Blood was collected into heparin coated tubes followed by centrifugation (5,000×g, 5 minutes) to isolate plasma.
Antigen capture plates that were prepared by coating wells of 96 well clear bottom ELISA plates with CENP018 (SEQ ID NO: 17) conjugated to BSA at 400 ng BSA-peptide conjugate per well in 100 uL of 200 mM carbonate buffer, pH 9.6 overnight at 4° C. Antigen coated ELISA plates were washed (×3) with PBS pH 7, blocked 30 min with PBS pH 7 containing 1% NFDM (PBS+NFDM), and then washed (×3) with PBS, pH 7. […] Goat anti-mouse IgG alkaline phosphatase (cat. number: A1418, Sigma-Aldrich, St. Louis, Mo.) was diluted 1:15,000 in PBS+NFDM and added (100 uL) to each well, incubated 30 min at RT, and the wells washed (×3) with PBS, pH 7. PNPP at 1 mg/mL in 1M DEA with 50 mM MgCl2, pH 9.8 was added (100 uL per well), and the absorbance at 405 nm was determined using a Wallac Victor^2 Model 1420-041 assay plate reader (Perkin Elmer, Gaithersburg, Md.) every 5 minutes for a total of 6 reads. Absorbance values from known antibody concentration standards were used to determine the concentration of antibody in the serum samples.

B1: M53-PEG24-CEN09-106: Class 1 EDC: antibody M53 conjugated to linker-ready agent PEG24-CEN09-106 (scillarenin, 4-amino-xyloside, PEG24) (conjugate)
heavy: EVQLVESGGGLVQPKGTLKLSCAASGFSFNTHAMNWVRQAPGKSLEWVARTMSKSNNYATYYADSVKDRFIIRADDSQSMLYLQMNNLKTEDTAMYYCVRDDPKRGMDYWGQGTSVTVSSAKTTPPSVYPLAPGSAAQTNSMVTLGCLVKGYFPEPVTVTWNSGSLSSGVHTFPAVLQSDLYTLSSSVTVPSSTWPSETVTCNVAHPASSTKVDKKIE
light: GIVMSQSPSSLAVSVGEKVTMSCKPSQSLLYSRNQKIYLAWYQQKPGQSPKLLIYWASTRESGVPDRFTGSGSGTDFTLIISSVRAEDLAVYYCQQYYNYPLTFGAGTKLELKRADAAPTVSIFPPSSEQLTSGGASVVCFLNNFYPKDINVKWKIDGSERQNGVLNSWTDQDSKDSTYSMSSTLTLTKDEYERHNSYTCEATHKTSTSPIVKSFNR
For B1, the EC50 ([1]; H520 cells (no FXYD5 surface expression), 3 days incubation) was over 50 nM, the “activity on H520 cells” value ([1]; H520 cells do not express dysadherin (FXYD5)) was “not active” and the “serum half-life of the antibody portion” value ([2]; 1 mg/kg tail vein) was 11.9 days. For the same molecule, the “serum half-life of the steroid drug portion” value ([2]; 1 mg/kg tail vein) was 11 days, the “serum stability half-life of the EDC” value ([2]; 1 mg/kg) was 45 days and the “serum half-life of the antibody portion” value ([2]; 10 mg/kg tail vein) was 9.2 days. The “serum half-life of the steroid drug portion” value ([2]; 10 mg/kg tail vein) was 8 days, the “serum stability half-life of the EDC” value ([2]; 10 mg/kg) was 39 days and the clinical observations ([3]; drug loading of 2, 200 mg/kg) was “limb weakness at day 1 but recovered by day 3”. The “loss in body weight” value ([3]; drug loading of 2, 200 mg/kg) was 25%, the MTD ([3]; drug loading of 2, single dose tail vein, BALB/c mice) was over 100 mg/kg and the clinical observations ([3]; drug loading of 5, 100 mg/kg) was “slight limpness and closed front limbs but recovered by day 3”. The weight loss ([3]; drug loading of 5, 100 mg/kg) was 27%, the clinical observations ([3]; drug loading of 5, 200 mg/kg) was “limpness and closed front limbs and weakness at days 1 and 2” and the clinical observations ([3]; drug loading of 5, 25 and 50 mg/kg) was “no signs of toxicity or weight loss”. The clinical observations ([3]; drug loading of 9, 25 mg/kg) was “no signs of toxicity or weight loss”, the clinical observations ([3]; drug loading of 9, 50 mg/kg) was “slight limpness on day 2 but recovered by day 3” and the weight loss ([3]; drug loading of 9, 50 mg/kg, by day 5) was 30%. For the same molecule, the clinical observations ([3]; drug loading of 9, 100 and 200 mg/kg) was “limpness, closed front limbs and weakness by day 1 which continued through day 2”, the visual observations ([4]; 146 days) was “no overt signs of toxicity” and the “average loss in body weight” value ([4]; first 6 days post injection) was 30%. The “serum half-life of detectable antibody” value ([5]; drug loading of 2, 1 mg/kg tail vein) was “approximately 7 days”, the “serum half-life of detectable antibody” value ([5]; drug loading of 5, 1 mg/kg tail vein) was about 4 days and the “serum half-life of detectable antibody” value ([5]; drug loading of 9, 1 mg/kg tail vein) was about 2 days.
